Laboratory results taken from patent publication US20260250404A1 (Genmab, published 2026).

Experiments:
[1] = molecular target: T1, recombinant His-tagged human FcγRIIa, 167-His [H] / H131 variant (human, UniProt P12318 34-218, limits assumed); assay: SPR (Biacore), His-tagged FcγR captured on anti-His chip, antibody injected
T1 construct: catalogue numbers differ; also called FcγRIIa-H; FcγRIIa-H131
T1 sequence (looked up): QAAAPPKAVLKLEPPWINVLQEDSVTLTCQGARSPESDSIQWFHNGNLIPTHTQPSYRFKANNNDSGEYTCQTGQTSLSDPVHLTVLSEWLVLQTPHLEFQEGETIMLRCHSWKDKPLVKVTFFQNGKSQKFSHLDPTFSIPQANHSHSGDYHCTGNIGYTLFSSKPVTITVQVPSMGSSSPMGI

[2] = molecular target: T2, recombinant His-tagged human FcγRIIa, 167-Arg [R] / R131 variant (human, UniProt P12318 34-218, limits assumed); assay: as above
T2 construct: catalogue numbers differ; also called FcγRIIa-R; FcγRIIa-R131
T2 sequence (looked up): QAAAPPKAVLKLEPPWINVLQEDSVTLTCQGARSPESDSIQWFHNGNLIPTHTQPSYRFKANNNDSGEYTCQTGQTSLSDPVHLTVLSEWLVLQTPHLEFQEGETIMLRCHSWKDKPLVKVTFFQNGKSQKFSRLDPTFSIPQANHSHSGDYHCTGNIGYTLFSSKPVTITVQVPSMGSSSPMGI

[3] = molecular target: T3, recombinant His-tagged human FcγRIIb (human, UniProt P31994 43-217, limits assumed); assay: as above
T3 sequence (looked up): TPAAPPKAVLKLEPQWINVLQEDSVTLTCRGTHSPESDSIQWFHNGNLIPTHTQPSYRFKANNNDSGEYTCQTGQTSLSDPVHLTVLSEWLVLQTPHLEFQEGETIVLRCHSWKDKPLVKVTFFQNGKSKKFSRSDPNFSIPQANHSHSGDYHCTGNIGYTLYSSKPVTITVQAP

[4] = molecular target: T4, recombinant His-tagged human FcγRIIIa, 176-Phe [F] / F158 variant (human, UniProt P08637 17-208); assay: as above
T4 construct: also called FcγRIIIa-F; FcγRIIIa-F158

[5] = molecular target: T5, recombinant His-tagged human FcγRIIIa, 176-Val [V] / V158 variant (human, UniProt P08637 17-208); assay: as above
T5 construct: also called FcγRIIIa-V; FcγRIIIa-V158

[6] = molecular target: T6, human complement protein C1q (from normal human serum) (human, UniProt P02745 23-245; P02746 28-253; P02747 29-245); assay: flow cytometry, C1q (20% normal human serum) binding to antibody bound on human T cells, FITC anti-C1q
T6 construct: Native C1q supplied as 20% normal human serum

[7] = molecular target: T7, human CD27 on the cell surface (T cells, transfected HEK293F cells, Daudi cells, NFκB-luc2/CD27 Jurkat cells) (human, UniProt P26842 20-240); assay: flow cytometry on CD4+ T cells in human healthy donor PBMC, FITC goat anti-human IgG F(ab')2, median FITC
T7 construct: Full length human CD27, endogenous or transfected; also called TNFRSF7

[8] = molecular target: T7, human CD27 on the cell surface (T …); assay: flow cytometry on CD8+ T cells in human healthy donor PBMC, FITC goat anti-human IgG F(ab')2, median FITC
[9] = molecular target: recombinant His-tagged human FcγRIa (Sino Biological 10256-H08S-B) (human, UniProt P12314 16-288); assay: SPR (Biacore), His-tagged FcγR captured on anti-His chip, antibody injected, resonance units after background subtraction
[10] = molecular target: T1, recombinant His-tagged human FcγRIIa, …; assay: as above
[11] = molecular target: T2, recombinant His-tagged human FcγRIIa, …; assay: as above
[12] = molecular target: T3, recombinant His-tagged human FcγRIIb; assay: as above
[13] = molecular target: T4, recombinant His-tagged human FcγRIIIa, …; assay: as above
[14] = molecular target: T5, recombinant His-tagged human FcγRIIIa, …; assay: as above
[15] = molecular target: T8, human FcγRIa on the cell surface (transfected CHO-S cells, M0/M1 macrophages, hMDM, FcγRI effector reporter … (human, UniProt P12314 16-374)); assay: flow cytometry on human monocyte-derived M0 macrophages, PE-labeled goat anti-human IgG, GeoMean-PE
T8 construct: whole, on cells; also called CD64

[16] = molecular target: T8, human FcγRIa on the cell surface …; assay: flow cytometry on CHO-S cells transiently expressing human FcγRIa, % PE+ cells
[17] = molecular target: T9, rat PD-1 on transfected CHO-S cells (rat, UniProt D3ZIN8 25-287); assay: flow cytometry on CHO-S cells transiently transfected with rat PD-1, gMFI (PE)
T9 sequence: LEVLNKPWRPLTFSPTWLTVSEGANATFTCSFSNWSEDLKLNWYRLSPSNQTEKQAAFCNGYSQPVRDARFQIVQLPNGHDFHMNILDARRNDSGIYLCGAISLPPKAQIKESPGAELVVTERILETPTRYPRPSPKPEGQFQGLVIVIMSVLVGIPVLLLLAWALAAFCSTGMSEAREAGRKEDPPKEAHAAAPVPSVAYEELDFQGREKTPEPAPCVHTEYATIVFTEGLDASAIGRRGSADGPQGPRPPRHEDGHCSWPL

[18] = molecular target: T10, human PD-1 on the cell surface (transfected CHO-S cells; PD-1 effector reporter Jurkat T cells) (human, UniProt Q15116 25-288); assay: flow cytometry on CHO-S cells transiently transfected with human PD-1, gMFI (PE)
T10 construct: also called CD279

[19] = molecular target: T11, mouse PD-1 on transfected CHO-S cells (mouse, UniProt Q02242 25-288); assay: flow cytometry on CHO-S cells transiently transfected with mouse PD-1, gMFI (PE)
T11 construct: whole, on cells
T11 sequence (looked up): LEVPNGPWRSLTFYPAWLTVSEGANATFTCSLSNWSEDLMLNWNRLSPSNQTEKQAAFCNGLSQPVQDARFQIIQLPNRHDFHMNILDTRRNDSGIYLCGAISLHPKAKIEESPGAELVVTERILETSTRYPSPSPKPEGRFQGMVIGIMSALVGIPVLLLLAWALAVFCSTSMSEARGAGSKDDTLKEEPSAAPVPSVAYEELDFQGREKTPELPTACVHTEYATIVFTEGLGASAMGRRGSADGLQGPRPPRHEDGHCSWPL

[20] = molecular target: cynomolgus monkey PD-1 on transfected CHO-S cells (cynomolgus monkey, UniProt B0LAJ3 25-288); assay: flow cytometry on CHO-S cells transiently transfected with cynomolgus monkey PD-1, gMFI (PE)
[21] = molecular target: T12, IgG1-CD27-A-P329R-E345R-LHalo (HaloTag NanoBret 618 ligand bound to the HaloTag); assay: NanoBRET proximity assay between NanoLuc- and HaloTag-tagged antibodies (5 µg/mL each) bound on cells, corrected BRET (mBU)
T12 construct: Light chain fused to HaloTag; heavy chain as for m63
T12 sequence (heavy, as listed by the source): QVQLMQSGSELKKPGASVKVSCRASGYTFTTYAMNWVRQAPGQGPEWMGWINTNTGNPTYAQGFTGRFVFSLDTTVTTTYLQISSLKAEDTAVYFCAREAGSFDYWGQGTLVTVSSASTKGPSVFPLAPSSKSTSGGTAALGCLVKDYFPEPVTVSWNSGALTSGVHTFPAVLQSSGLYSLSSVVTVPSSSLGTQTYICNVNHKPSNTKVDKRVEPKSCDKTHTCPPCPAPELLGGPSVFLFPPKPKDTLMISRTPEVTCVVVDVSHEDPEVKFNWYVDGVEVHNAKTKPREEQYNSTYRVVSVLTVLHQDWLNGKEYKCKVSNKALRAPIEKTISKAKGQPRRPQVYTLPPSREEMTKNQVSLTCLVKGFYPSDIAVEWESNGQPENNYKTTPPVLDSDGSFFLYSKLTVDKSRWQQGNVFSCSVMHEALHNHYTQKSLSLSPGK

T7 sequence (P26842 20-240): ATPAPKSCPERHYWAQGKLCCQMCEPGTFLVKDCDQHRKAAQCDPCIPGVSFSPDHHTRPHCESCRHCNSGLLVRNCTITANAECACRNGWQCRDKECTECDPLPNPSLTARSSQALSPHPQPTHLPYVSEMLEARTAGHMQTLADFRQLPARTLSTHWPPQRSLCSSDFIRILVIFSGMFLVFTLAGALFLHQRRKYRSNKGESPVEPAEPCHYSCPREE
Sequence of recombinant His-tagged human FcγRIa (Sino Biological 10256-H08S-B) (P12314 16-288 limits assumed, stated change not applied): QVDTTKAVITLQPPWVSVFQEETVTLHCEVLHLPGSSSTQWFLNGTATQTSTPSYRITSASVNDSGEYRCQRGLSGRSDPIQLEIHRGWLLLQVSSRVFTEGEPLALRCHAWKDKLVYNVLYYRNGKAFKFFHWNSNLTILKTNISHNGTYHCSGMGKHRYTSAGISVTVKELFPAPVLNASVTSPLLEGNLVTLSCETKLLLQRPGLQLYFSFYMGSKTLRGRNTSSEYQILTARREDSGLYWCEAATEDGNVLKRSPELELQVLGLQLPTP
T8 sequence (P12314 16-374): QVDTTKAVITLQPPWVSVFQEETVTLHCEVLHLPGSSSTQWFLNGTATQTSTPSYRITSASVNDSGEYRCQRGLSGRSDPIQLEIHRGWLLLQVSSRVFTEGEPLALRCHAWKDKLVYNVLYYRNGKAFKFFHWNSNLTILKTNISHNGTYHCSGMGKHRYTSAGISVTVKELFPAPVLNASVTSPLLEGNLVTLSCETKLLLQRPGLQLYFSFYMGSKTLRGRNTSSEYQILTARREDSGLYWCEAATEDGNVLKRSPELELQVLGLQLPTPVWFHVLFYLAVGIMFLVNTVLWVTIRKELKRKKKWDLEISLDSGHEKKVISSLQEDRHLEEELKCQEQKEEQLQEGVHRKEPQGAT
T5 sequence (P08637 other isoform, or with tags, fused parts or gaps mutant limits assumed): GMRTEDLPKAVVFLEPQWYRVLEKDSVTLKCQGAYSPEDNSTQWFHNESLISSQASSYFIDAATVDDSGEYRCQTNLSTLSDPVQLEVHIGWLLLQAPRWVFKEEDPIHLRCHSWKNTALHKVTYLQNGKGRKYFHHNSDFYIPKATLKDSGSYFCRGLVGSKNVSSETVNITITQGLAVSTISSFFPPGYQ
T4 sequence (P08637 17-208 limits assumed, change not shown): as the sequence (P08637 other isoform, or with tags, fused parts or gaps mutant limits assumed) above, with V160F counted along it
Sequence of cynomolgus monkey PD-1 on transfected CHO-S cells (B0LAJ3 entry or part of it limits assumed): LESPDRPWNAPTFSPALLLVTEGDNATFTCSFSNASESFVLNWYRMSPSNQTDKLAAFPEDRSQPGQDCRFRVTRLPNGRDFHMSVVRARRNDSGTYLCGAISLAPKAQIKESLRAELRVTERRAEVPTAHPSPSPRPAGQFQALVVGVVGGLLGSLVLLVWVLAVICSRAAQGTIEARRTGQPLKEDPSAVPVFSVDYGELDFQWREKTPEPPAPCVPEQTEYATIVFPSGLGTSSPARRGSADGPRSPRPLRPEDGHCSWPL
T10 sequence (Q15116 25-288 limits assumed): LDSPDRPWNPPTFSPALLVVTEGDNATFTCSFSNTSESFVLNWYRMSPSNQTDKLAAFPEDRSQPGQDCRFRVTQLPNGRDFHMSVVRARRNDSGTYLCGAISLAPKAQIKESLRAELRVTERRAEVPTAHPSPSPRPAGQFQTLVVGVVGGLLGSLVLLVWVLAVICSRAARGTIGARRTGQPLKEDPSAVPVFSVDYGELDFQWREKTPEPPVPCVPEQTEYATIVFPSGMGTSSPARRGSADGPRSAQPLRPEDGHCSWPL
T6 sequence (P02745 23-245, chain 1 of 3): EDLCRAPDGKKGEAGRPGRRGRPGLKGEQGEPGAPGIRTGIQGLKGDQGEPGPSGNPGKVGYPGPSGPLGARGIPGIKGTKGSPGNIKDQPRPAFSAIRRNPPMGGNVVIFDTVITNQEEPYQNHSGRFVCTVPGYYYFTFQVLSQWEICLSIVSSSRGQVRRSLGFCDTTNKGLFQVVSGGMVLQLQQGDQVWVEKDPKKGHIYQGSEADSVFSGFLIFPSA
T6 sequence (P02746 28-253, chain 2 of 3): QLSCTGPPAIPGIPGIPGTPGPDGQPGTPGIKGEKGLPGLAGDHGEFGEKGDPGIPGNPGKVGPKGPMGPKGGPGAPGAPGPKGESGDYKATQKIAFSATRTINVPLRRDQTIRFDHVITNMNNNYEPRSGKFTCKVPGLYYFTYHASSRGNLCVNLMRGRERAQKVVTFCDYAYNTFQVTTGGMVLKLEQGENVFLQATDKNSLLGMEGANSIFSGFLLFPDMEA
T6 sequence (P02747 29-245, chain 3 of 3): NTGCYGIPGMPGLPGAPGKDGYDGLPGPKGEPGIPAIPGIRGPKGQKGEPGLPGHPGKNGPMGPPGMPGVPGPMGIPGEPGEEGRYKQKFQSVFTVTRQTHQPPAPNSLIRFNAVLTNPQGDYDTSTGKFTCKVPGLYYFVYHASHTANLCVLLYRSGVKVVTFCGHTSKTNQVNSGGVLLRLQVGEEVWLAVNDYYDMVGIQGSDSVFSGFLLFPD

B1: IgG1-CD27-A-P329R-E345R (antibody)
heavy: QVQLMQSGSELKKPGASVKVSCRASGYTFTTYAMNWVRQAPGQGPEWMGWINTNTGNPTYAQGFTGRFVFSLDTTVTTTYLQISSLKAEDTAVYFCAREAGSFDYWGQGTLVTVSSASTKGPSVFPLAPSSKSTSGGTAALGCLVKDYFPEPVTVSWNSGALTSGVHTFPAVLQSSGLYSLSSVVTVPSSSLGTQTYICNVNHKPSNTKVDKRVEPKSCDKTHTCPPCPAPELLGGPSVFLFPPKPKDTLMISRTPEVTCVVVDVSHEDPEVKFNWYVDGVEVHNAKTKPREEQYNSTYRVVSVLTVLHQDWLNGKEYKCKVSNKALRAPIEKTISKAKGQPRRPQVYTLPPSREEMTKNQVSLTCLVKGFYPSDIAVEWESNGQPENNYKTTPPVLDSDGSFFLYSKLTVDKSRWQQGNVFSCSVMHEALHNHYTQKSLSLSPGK
light: QSALTQPASVSGSPGQSITISCTGTSSDVYYYNYVSWYQQHPGRAPKLVIYDVSNRPSGVSNRFSGSKSGNTASLTISGLRAEDEADYYCSSYTVNRVWVFGGGTKLTVLGQPKAAPSVTLFPPSSEELQANKATLVCLISDFYPGAVTVAWKADSSPVKAGVETTTPSKQSNNKYAASSYLSLTPEQWKSHRSYSCQVTHEGSTVEKTVAPTECS
notes: also called IgG1-CD27-A-E345R-P329R; IgG-CD27-A-P329R-E345R
binding result [1]: no binding (tested: 10,000 nM)
binding result [2]: no binding (tested: 10,000 nM)
binding result [3]: no binding (tested: 10,000 nM)
binding result [4]: no binding (tested: 10,000 nM)
binding result [5]: no binding (tested: 10,000 nM)
binding result [6]: no binding (tested: 15 µg/mL)
EC50 (read off the curve) [7]: ~0.03 µg/mL
EC50 (read off the curve) [8]: ~0.03 µg/mL
binding result [9]: binds

B2: IgG1-b12, anti-HIV gp120 antibody with wild-type IgG1 Fc (antibody)
heavy: not shown
light: EIVLTQSPGTLSLSPGERATFSCRSSHSIRSRRVAWYQHKPGQAPRLVIHGVSNRASGISDRFSGSGSGTDFTLTITRVEPEDFALYYCQVYGASSYTFGQGTKLERKRTVAAPSVFIFPPSDEQLKSGTASVVCLLNNFYPREAKVQWKVDNALQSGNSQESVTEQDSKDSTYSLSSTLTLSKADYEKHKVYACEVTHQGLSSPVTKSFNRGEC
notes: also called WT IgG1-b12; ctrl; copies: 2 + 2
EC50 (read off the curve) [9]: ~60 nM
binding result [10]: binds
binding result [11]: binds
binding result [12]: binds
binding result [13]: binds
binding result [14]: binds

B3: IgG1-b12-P329R-E345R (antibody)
VH: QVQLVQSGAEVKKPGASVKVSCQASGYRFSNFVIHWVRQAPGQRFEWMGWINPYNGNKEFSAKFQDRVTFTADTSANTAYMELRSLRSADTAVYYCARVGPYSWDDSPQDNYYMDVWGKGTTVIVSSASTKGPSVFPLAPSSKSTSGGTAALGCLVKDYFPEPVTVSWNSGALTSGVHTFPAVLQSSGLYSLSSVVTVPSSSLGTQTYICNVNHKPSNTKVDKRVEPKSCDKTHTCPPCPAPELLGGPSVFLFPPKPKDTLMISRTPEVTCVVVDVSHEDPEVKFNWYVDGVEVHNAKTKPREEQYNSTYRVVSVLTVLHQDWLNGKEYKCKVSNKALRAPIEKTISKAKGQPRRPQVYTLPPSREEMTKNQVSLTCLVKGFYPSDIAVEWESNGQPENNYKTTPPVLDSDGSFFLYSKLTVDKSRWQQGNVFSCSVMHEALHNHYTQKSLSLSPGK
VL: EIVLTQSPGTLSLSPGERATFSCRSSHSIRSRRVAWYQHKPGQAPRLVIHGVSNRASGISDRFSGSGSGTDFTLTITRVEPEDFALYYCQVYGASSYTFGQGTKLERKRTVAAPSVFIFPPSDEQLKSGTASVVCLLNNFYPREAKVQWKVDNALQSGNSQESVTEQDSKDSTYSLSSTLTLSKADYEKHKVYACEVTHQGLSSPVTKSFNRGEC
notes: also called ctrl; IgG1-b12-E345R-P329R
binding result [7]: no binding (tested: 10 µg/ml)
binding result [15]: no binding (tested: 30 µg/mL)

B4: IgG1-ctrl-FERR (b12 antigen-binding domains, IgG1m(f)-L234F-L235E-G236R-K409R) (antibody)
heavy: QVQLVQSGAEVKKPGASVKVSCQASGYRFSNFVIHWVRQAPGQRFEWMGWINPYNGNKEFSAKFQDRVTFTADTSANTAYMELRSLRSADTAVYYCARVGPYSWDDSPQDNYYMDVWGKGTTVIVSSASTKGPSVFPLAPSSKSTSGGTAALGCLVKDYFPEPVTVSWNSGALTSGVHTFPAVLQSSGLYSLSSVVTVPSSSLGTQTYICNVNHKPSNTKVDKRVEPKSCDKTHTCPPCPAPEFERGPSVFLFPPKPKDTLMISRTPEVTCVVVDVSHEDPEVKFNWYVDGVEVHNAKTKPREEQYNSTYRVVSVLTVLHQDWLNGKEYKCKVSNKALPAPIEKTISKAKGQPREPQVYTLPPSREEMTKNQVSLTCLVKGFYPSDIAVEWESNGQPENNYKTTPPVLDSDGSFFLYSRLTVDKSRWQQGNVFSCSVMHEALHNHYTQKSLSLSPG
light: EIVLTQSPGTLSLSPGERATFSCRSSHSIRSRRVAWYQHKPGQAPRLVIHGVSNRASGISDRFSGSGSGTDFTLTITRVEPEDFALYYCQVYGASSYTFGQGTKLERKRTVAAPSVFIFPPSDEQLKSGTASVVCLLNNFYPREAKVQWKVDNALQSGNSQESVTEQDSKDSTYSLSSTLTLSKADYEKHKVYACEVTHQGLSSPVTKSFNRGEC
binding result [16]: no binding (tested: 10 µg/mL)
binding result [17]: no binding (tested: 10 µg/mL)
binding result [18]: no binding (tested: 10 µg/mL)
binding result [19]: no binding (tested: 10 µg/mL)
binding result [20]: no binding (tested: 10 µg/mL)

B5: IgG1-CD27-A-P329R-E345R-LNLuc (antibody)
heavy: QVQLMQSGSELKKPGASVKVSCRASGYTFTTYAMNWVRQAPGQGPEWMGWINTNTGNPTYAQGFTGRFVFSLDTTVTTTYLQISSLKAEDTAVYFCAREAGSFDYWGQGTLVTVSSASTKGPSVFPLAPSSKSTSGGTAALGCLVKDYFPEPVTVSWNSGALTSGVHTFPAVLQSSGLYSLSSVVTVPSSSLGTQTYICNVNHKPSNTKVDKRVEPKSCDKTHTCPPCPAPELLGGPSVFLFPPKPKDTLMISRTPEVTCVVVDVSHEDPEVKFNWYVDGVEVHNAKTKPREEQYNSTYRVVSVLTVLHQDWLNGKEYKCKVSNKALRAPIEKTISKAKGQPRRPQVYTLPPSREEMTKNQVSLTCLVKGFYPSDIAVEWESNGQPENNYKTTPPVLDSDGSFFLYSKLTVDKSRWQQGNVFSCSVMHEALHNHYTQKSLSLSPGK
light: QSALTQPASVSGSPGQSITISCTGTSSDVYYYNYVSWYQQHPGRAPKLVIYDVSNRPSGVSNRFSGSKSGNTASLTISGLRAEDEADYYCSSYTVNRVWVFGGGTKLTVLGQPKAAPSVTLFPPSSEELQANKATLVCLISDFYPGAVTVAWKADSSPVKAGVETTTPSKQSNNKYAASSYLSLTPEQWKSHRSYSCQVTHEGSTVEKTVAPTECSSLGSSGVFTLEDFVGDWRQTAGYNLDQVLEQGGVSSLFQNLGVSVTPIQRIVLSGENGLKIDIHVIIPYEGLSGDQMGQIEKIFKVVYPVDDHHFKVILHYGTLVIDGVTPNMIDYFGRPYEGIAVFDGKKITVTGTLWNGNKIIDERLINPDGSLLFRVTINGVTGWRLCERILA
binding result [21]: binds
